Results on two substances are retold here after paper PMC3604778.

Assay [1] deals with human plasminogen (human). Put plainly: SPR.
The target in assay [2] is SCM expressed on the surface of S. canis G361 (Streptococcus canis (endogenous in strain G361)). Put plainly: radioligand binding.
The target of assay [3] is human plasminogen (human). Put plainly: radioligand binding.
Assay [4] addresses SCM expressed on the surface of S. canis G361 (Streptococcus canis (endogenous in strain G361)). Put plainly: radioligand binding. This is another data set of the same source.

Where two headings read alike, the source gives them in different places.

Broadly, the Kd is a measure of binding affinity in units of concentration. A high value points to a looser complex.

In the case of “recombinant S. canis enolase (strain G361) (from UniProt A0A2D4DNT6 1-435) (enzyme)”, in assay [1], the Kd amounted to 800 nM.

As for “purified recombinant SCM, M-like protein of S. canis (derived from strain G361) (natural protein)”, in assay [2], the percent binding of 125I-SCM to G361 (1 × 10^7 bacteria) worked out at 13.1%, the percent binding of 125I-SCM to G361 (2 × 10^7 bacteria) was 19.3%, the percent binding of 125I-SCM to G361 (4 × 10^6 bacteria) is 6.5% and the percent binding of 125I-SCM to G361 (control without inhibitor) amounted to 28.7%. In assay [2], this substance gave a percent binding of 125I-SCM to G361 bacteria of 23.5%, a percent binding of 125I-SCM to G361 left with 1.0 µM nonlabeled SCM of 15.8%, a percent binding of 125I-SCM to G361 left with 10.0 µg nonlabeled SCM of 4.2% and a percent specific binding of 125I-SCM to G361 bacteria of 20.5%. In assay [3], this substance yielded a percent binding of 125I-plasminogen to G361 left with 1.0 µM nonlabeled SCM of 41.3%. In assay [4], this substance registered a percent binding of 125I-SCM to G361 bacteria of 25.7%.
